Target: B′ protein (GyrB C-terminal domain) of M. tuberculosis DNA gyrase (M. tuberculosis)
Assay: […]) in 50 mM Tris–HCl

B′ protein (GyrB C-terminal domain) of M. tuberculosis DNA gyrase (domain or fragment)
Kd: < 1000 nM

— publication PMC3201873
